The record followed here is the nanobody polyreactivity screen of Harvey et al. (2022).

A short description of this series: yeast display, Sf9 membrane polyspecificity reagent, FACS + sequencing; frameworks hold sequencing errors. The essentials: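 A synthetic nanobody library was expressed on Saccharomyces cerevisiae BJ5465 by galactose induction for 36–48 hours. The library was stained for 1 hour at 4 °C with 10% biotinylated, detergent-solubilized Sf9 membrane reagent and enriched with streptavidin microbeads before FACS. Low and high (top ~1%) gates were set on anti-HA fluorescence for expression and streptavidin fluorescence for reagent binding, and each polyreactivity label reflects the gate of origin.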
For the sequence “QVQLVESGGGLVQAGGSLRLSCAASGSTFSGNVMGWYRQAPGKERALVAAIRRSSGSTYYADSVKGRFTISRDNAKNTVYLQMNSLKPEDTAVYYCATDVTKIRQGDYYYWGQGTQVTVSS”, the “polyreactivity (PSR sort gate)” value is given as “high polyreactivity”.

“QVQLVESGGGLVQAGGSLRLSCAASGSTFSGYAMGGYRQAPGKERELVAAISSSGGSTSYADSVKGRFTISRDNAKNTVYLQMNSLKPEDTAVYYCAARAKGYAHIRAYDYWGQGTQVTVSS”: the “polyreactivity (PSR sort gate)” value is recorded as “low polyreactivity”.

In the case of “QVQLVESGGGLVQAGGSLRLSCAASGSTFSGYAMGWSRQAPGKERELVASITSSGGSTYYADSVKGRFTISRDNAKNTVYLQMNSLKPEDTAVYYCAAAKSAMWGQGTQVTVSS”, the “polyreactivity (PSR sort gate)” value was “low polyreactivity”.

On to “QVQLVESGGGLVQAGGSLRLSCAASGSTFSGYDRGWYRQEPGKESEFVATITYSGGSTYYADSVKGRFTISRDNAKNTVYLQMNSLKPEDTAVYYCAADTPDAPDYSGLYYWGQGTQVTVSS”, for which the “polyreactivity (PSR sort gate)” value is “low polyreactivity”.

Turning to “QVQLVESGGGLVQAGGSLRLSCAASGSTFSGYVMGWYRQAPGKERELVAAITGRGGNTYYADSVKGRFTISRDNGKNTVYLQMNSLKPEDTAVYYCAAARRSYQYGYWGQGTQVTVSS”, the “polyreactivity (PSR sort gate)” value is on record as “high polyreactivity”.

Consider “QVQLVESGGGLVQAGGSLRLSCAASGSTFSHYTMGWYRQAPGKERELVAAITRSGGSTYYADSVKARFTISRDNAKNNVYLQMTSLNPEDSAVYYCAATRQWNILRYDYWGQGTLVTVSS”, for which the “polyreactivity (PSR sort gate)” value is on record as “low polyreactivity”.

Take “QVQLVESGGGLVQAGGSLRLSCAASGSTFSHYTMGWYRQAPGKERQLVAAINYGGASTYDADSVKGRFTISRDNAKNTVYLQMNSLKPEDTAVYYCAAAYRPSEQYNYWGQGTQVTVSS”: the “polyreactivity (PSR sort gate)” value is listed as “low polyreactivity”.

With “QVQLVESGGGLVQAGGSLRLSCAASGSTFSINAMGWYRPAPGKERELVAAITWRGTRTYYADSVKGRFTISRDNAKNTVYLQMNSLKPEDTAVYYCAATGSGQSSYYYWGQGTQVTVSS”, the “polyreactivity (PSR sort gate)” value was “high polyreactivity”.

In the case of “QVQLVESGGGLVQAGGSLRLSCAASGSTFSIYAMGWYRQAPGKERELVAAISFSDDSTYYADSVKGRFTISRDNAKNTVYLQMNSLKPEDTAVYYCAAEGYWGQPFDYDGALEYWGQGTQVTVSS”, the “polyreactivity (PSR sort gate)” value is listed as “high polyreactivity”.

Turning to “QVQLVESGGGLVQAGGSLRLSCAASGSTFSIYAMGWYRQAPGKERELVAAISGSGSRTYYADSVKGRFTISRDNAKNTVYLQMNSLKPEDTAVYYCAARGRHRDGFDFNYWGQGTQVTVSS”, the “polyreactivity (PSR sort gate)” value is recorded as “high polyreactivity”.

Turning to “QVQLVESGGGLVQAGGSLRLSCAASGSTFSKYAMGWYRQAPGKERELVAAITRTTGRTYYADSVKGRFSISRDNAKNTVYLHMNSLKPEDTAVDYCAARSPYYRAYKYDYWGQGTQVTVSS”, the “polyreactivity (PSR sort gate)” value is given as “high polyreactivity”.

In the case of “QVQLVESGGGLVQAGGSLRLSCAASGSTFSLNDMGWYRQAPGKERQLVAAITGRGTRTYYADSVKGRFTISRDNAKNNVYLQMNSLKPEDTAVYYCAIDYPRGSPYGYNYWVQGTQVTVSS”, the “polyreactivity (PSR sort gate)” value is “high polyreactivity”.

As to “QVQLVESGGGLVQAGGSLRLSCAASGSTFSLYAMGWYRQAPGKERELVAAITRSGGGTHYADSVKGRFTISRDNAKNTVYLQMNSLKPEDTAVYYCAKRQSGYRYDYWGQGTEVTVSS”, the “polyreactivity (PSR sort gate)” value is on record as “low polyreactivity”.

“QVQLVESGGGLVQAGGSLRLSCAASGSTFSNNAMGWYRQAPGKERELVASTNYADSVKGRFTISRDNEKNTVYLQMNSLKPEDTAVYYCAAGAYPSWGLDFWGQGTQVTVSS”: the “polyreactivity (PSR sort gate)” value was “low polyreactivity”.

On to “QVQLVESGGGLVQAGGSLRLSCAASGSTFSNYAMGGYRQAPGKERELVAAITSGGTTNYADSVKGRFTISRDNAKNTVYLQMNSLKPEDTAVYYCAKRYSYHVPTHIWVEYYYWGQGTQVTVSS”, for which the “polyreactivity (PSR sort gate)” value is on record as “low polyreactivity”.

As for “QVQLVESGGGLVQAGGSLRLSCAASGSTFSPYAMGWYRHAPGKERELVAAITSGGGSTYYADSVKGRFTISRDNAKNTVYLQMNSLKPEDTAVYYCNAYLYYLGGPYDYWGQGTQVTVSS”, the “polyreactivity (PSR sort gate)” value is listed as “high polyreactivity”.

For “QVQLVESGGGLVQAGGSLRLSCAASGSTFSPYAMGWYRQAPGKERELVAAINYSSGSTYYADSVKGRFTISRDNAKNTVYLQMNSLKPEDTAVYYCANGWYAGYPYDYWGQGTQVTVSS”, the “polyreactivity (PSR sort gate)” value is reported as “low polyreactivity”.

“QVQLVESGGGLVQAGGSLRLSCAASGSTFSPYAMGWYRQAPGKERELVADISWPGGTTYYADSVKGRFTISRDNAKNTVYLQMNSLKPEVTAVYYCAVTYWDYTFQITYEYWGQGTQVTVSS”: the “polyreactivity (PSR sort gate)” value is given as “low polyreactivity”.

“QVQLVESGGGLVQAGGSLRLSCAASGSTFSPYAMGWYRQAPGKERELVAGISRGTSTNYADSVKGRFTISRDNAKNTVYLQMNSLKPVDTAVYYCAARAYHRYLPGYRVRFGDYYYWGQGTQVTVSS”: the “polyreactivity (PSR sort gate)” value is “high polyreactivity”.

With “QVQLVESGGGLVQAGGSLRLSCAASGSTFSPYAMVWYRQEPGKERELVAAITWSGGSTYYADSVKGRFTISRDNAKNSVYLQMNSLKPEDTAVYYCNAVPYLSIEYDYWGQGTQVTVSS”, the “polyreactivity (PSR sort gate)” value is “high polyreactivity”.

Take “QVQLVESGGGLVQAGGSLRLSCAASGSTFSQYAMGWYRQAPGKETELVAVITRSGGSTYYADSVKGRFTISRDNAKNTVYLQMNSLKPEDTAVYYCAARSGRYKGDYWGQGTQVTVSS”: the “polyreactivity (PSR sort gate)” value is “low polyreactivity”.

As for “QVQLVESGGGLVQAGGSLRLSCAASGSTFSQYVMGWYRQAPGKERELVAAISSGGSTYYADSVKGRFTISRDNAKNTVYLQMNSLKPEDTAVYYCAAKYDGSYVGLYWYSMNYWGQGTQVTVSS”, the “polyreactivity (PSR sort gate)” value is given as “low polyreactivity”.

As to “QVQLVESGGGLVQAGGSLRLSCAASGSTFSRNAMGWYRQAPGKERELVAAISYRGGSTYYADSVKGRFTISRDNAKNTVYLQMNSLKPEDTAVYYCNADVGWRAPDYGGYDYWGQGTQVTVSS”, the “polyreactivity (PSR sort gate)” value is “high polyreactivity”.

“QVQLVESGGGLVQAGGSLRLSCAASGSTFSRNAMGWYRQAPGKERELVAAITSSGGSTYYADSVKGRFTISRDNAKNTVYLQMNSLKPEDTAVYYCAAPRRRHFDYWGQGTQVTVSS”: the “polyreactivity (PSR sort gate)” value is “high polyreactivity”.

In the case of “QVQLVESGGGLVQAGGSLRLSCAASGSTFSRNAMGWYRQAPGKERELVASITRGGSTYADSVKGRFTISRDNAKNTVYLQMNSLKPEDTAVYYCAKSVTGWRGLWYTPRNYYWGQGTQVTVSS”, the “polyreactivity (PSR sort gate)” value is given as “high polyreactivity”.

For the sequence “QVQLVESGGGLVQAGGSLRLSCAASGSTFSRYAMGWYRQAPGKERDLVAAISWGGNTYYADSVKGRFTISRDNAKNTVYLQMNSLKPEDTAVYYCNRYSKLYNTMDYWGQGTQVTVSS”, the “polyreactivity (PSR sort gate)” value is “high polyreactivity”.

In the case of “QVQLVESGGGLVQAGGSLRLSCAASGSTFSRYAMGWYRQAPGKERELVAAISRGGNTYYADSVKGRFTISRDNAKNTVYLQMNSLKPEDTAVYYCNRYSKLYNTMDYWGQGTQVTVSS”, the “polyreactivity (PSR sort gate)” value is reported as “high polyreactivity”.

In the case of “QVQLVESGGGLVQAGGSLRLSCAASGSTFSRYAMGWYRQAPGKERELVAAISWGGNTYYADSVKGRFTISRDNAKNTVYFQMNSLKPEDTALYYCATEVRYQGWRDYWGQVTQVTVSS”, the “polyreactivity (PSR sort gate)” value is “high polyreactivity”.

Consider “QVQLVESGGGLVQAGGSLRLSCAASGSTFSRYAMGWYRQAPGKERELVAAISWGGNTYYADSVKGRFTISRDNAKNTVYLQMNSLKPEDTAVYYCNRYTKLYNTMDYWGQGTQVTVSS”, for which the “polyreactivity (PSR sort gate)” value was “high polyreactivity”.

With “QVQLVESGGGLVQAGGSLRLSCAASGSTFSRYAMGWYRQAPGKERELVAAITRSGGGTHYADSVKGRFTISRDNAKNTVYLQMNSLKPEDTAVYYCNVAGVLYPFVSYDYWGQGTQVTVSS”, the “polyreactivity (PSR sort gate)” value is “low polyreactivity”.
